Test results as given in patent US20230391890A1 (CORNELL UNIVERSITY, published 2023).

T1: native CEMIP/KIAA1199 expressed on the surface of human cancer cells (human, UniProt Q8WUJ3 31-1361)
T1 sequence: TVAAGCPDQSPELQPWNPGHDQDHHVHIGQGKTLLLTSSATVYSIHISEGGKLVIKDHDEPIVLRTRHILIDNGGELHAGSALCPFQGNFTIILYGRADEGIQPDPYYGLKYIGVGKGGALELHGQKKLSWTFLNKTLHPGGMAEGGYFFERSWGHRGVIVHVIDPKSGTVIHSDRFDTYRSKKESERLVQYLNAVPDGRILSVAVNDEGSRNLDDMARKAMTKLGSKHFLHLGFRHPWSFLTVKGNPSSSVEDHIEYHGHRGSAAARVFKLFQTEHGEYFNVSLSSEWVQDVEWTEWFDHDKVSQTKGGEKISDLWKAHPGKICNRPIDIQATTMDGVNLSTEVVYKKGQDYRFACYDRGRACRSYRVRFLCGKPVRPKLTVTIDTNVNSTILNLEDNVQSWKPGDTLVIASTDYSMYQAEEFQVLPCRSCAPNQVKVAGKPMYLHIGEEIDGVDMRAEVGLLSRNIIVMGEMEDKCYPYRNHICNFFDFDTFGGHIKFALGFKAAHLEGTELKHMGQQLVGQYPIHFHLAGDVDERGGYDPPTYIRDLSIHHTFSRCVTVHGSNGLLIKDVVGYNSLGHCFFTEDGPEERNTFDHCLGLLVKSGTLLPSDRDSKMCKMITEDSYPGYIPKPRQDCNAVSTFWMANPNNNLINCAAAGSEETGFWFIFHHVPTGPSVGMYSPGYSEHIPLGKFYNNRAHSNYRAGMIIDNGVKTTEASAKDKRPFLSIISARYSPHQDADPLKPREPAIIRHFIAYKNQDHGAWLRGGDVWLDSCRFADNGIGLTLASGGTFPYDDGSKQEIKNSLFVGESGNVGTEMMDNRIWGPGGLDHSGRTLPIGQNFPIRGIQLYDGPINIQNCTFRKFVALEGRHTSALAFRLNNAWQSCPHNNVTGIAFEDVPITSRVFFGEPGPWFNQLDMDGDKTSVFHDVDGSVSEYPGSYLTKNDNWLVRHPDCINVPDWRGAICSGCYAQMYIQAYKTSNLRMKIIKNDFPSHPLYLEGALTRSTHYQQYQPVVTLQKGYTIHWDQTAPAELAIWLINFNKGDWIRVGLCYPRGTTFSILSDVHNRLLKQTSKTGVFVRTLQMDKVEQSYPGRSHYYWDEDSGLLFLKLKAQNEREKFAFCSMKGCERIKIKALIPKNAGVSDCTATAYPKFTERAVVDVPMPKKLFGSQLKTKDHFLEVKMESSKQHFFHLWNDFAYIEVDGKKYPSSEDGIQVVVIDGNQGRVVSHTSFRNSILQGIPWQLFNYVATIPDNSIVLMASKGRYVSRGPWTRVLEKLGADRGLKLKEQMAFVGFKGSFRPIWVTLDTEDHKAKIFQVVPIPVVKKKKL

T2: purified KIAA1199/CEMIP protein (aa 1-649) (human, UniProt Q8WUJ3 31-649)
T2 construct: also called recombinant KIAA1199/CEMIP protein
T2 sequence: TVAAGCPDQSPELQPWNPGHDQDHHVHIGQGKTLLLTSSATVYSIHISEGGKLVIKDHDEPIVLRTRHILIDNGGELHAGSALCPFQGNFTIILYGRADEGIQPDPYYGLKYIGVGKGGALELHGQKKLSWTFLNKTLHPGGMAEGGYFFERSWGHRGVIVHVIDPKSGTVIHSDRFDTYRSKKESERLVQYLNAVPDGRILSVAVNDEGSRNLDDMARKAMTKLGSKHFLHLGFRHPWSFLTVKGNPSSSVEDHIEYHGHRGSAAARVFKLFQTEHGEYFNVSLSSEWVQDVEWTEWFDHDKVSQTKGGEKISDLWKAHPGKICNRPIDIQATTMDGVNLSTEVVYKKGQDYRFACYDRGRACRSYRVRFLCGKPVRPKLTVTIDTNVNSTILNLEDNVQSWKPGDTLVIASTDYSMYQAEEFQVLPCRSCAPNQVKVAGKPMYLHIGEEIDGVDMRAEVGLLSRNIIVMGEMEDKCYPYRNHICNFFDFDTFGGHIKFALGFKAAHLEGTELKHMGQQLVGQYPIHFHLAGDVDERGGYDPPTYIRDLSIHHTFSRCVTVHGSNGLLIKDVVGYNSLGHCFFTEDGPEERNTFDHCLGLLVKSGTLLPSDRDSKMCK


Columns and labels:
[1] = biological target: T1, native CEMIP/KIAA1199 expressed on the …; test: cell-based or functional assay
[2] = biological target: T1, native CEMIP/KIAA1199 expressed on the …; test: flow cytometry on MKN45 cells
[3] = biological target: T2, purified KIAA1199/CEMIP protein (aa …); test: ELISA on recombinant CEMIP, purified antibody

Row | Binder | GFP+ parental MDA-MB231 cells on the slice, 3D organotypic brain slice assay, CEMIP-positive exosomes pre-incubated with antibody [1] | binding result [2] | binding result [3]
1 | 07F11C02 (cAb4853) (antibody, mouse IgG2a, kappa, V domains shown) VH: DVQLVESGGGLVQPGGSRKLSCAASGFAFSSFGMHWVRQAPERGLEWVAYISSASNTIYYADTVKGRFTISRDNPKSTLFLQMTSLRSEDTAIYYCAKRDWDLYAMDYWGQGTSVTVSS VL: DIVMTQSQKFLSTSVGDRVTITCKASQNVGTAVAWYQQKPGQSPELLIYSASNRHTGVPARFTGSGSGTDFTLTITNMQSEDLADYFCQQYSSSPTFGGGTKLESKR | 6 fold decrease |  | 
2 | 12A12 (cAb5776) (antibody, mouse IgG1, kappa, V domains shown, Mouse monoclonal antibody from a hybridoma (supernatant, later purified)) VH: EVQLQQSGPELVKPGVSMKISCKASGYSFTAYTMNWVKQSHGENLEWIGLINPYNGGTTYNQKFKGKATLTVDKSSSTAYMELLSLTSEDSAVYYCASYDYGYAMDYWGQGTSVTVSS VL: DVLMTQTPLSLPVSLGDQASISCRSSQSIVHRSGNTYLEWYLQKPGQSPKLLIYKVSNRFSGVPDRFSGSGSGTDFTLKISRVEAEDLGVYYCFQGSHVPWTFGGGTKLEIKR |  | binds | binds
3 | 12D02 (cAb5775) (antibody, mouse IgG1, kappa, V domains shown, Mouse monoclonal antibody from a hybridoma (supernatant, later purified)) VH: EVQLQQSGPELVKPGASMKISCKASGYSFTAYTMNWVKQSHGENLEWIGLINPYNGGTTYNQKFKGKATLTVDKSSSTAYMELLSLTSEDSAVYYCASYDYGYAMDYWGQGTSVTVSS VL: DVLMTQTPLSLPVSLGDQASISCRSSQSIVHRNGNTYLEWYLQKPGQSPKLLIYKVSNRFSGVPDRFSGSGSGTDFTLKISRVEAEDLGVYYCFQGSHVPWTFGGGTKLEIKR |  | binds | binds
4 | 12D08 (cAb5777) (antibody, mouse IgG2a, kappa, V domains shown, Mouse monoclonal antibody from a hybridoma (supernatant, later purified)) VH: EVQLQQSGAELVKPGASVKLSCTASGFNIKDTYMHWVKQRPEQGLIWIGNIDPANGHTKYAPKFQGKATITADTSSNTAYLQLSSLTSEDTAVYYCARSNDYDVDFDYWGQGTTLTVSS VL: DIVMSQSPSSLAVSAGEKVTMSCKSSQSLLNSRTRKNYLAWYQQKPGQSPKLLIYWASTRESGVPDRFTGSGSGTDFSLTISSVQAEDLAVYYCKQSYNLYTFGGGTKLEIKR |  | binds | binds
5 | 13G04 (cAb5778) (antibody, mouse IgG1, kappa, V domains shown, Mouse monoclonal antibody from a hybridoma (supernatant, later purified)) VH: EVHLQQSGPELVKPGASMKISCKASGYSFTAYTMNWVKQSHGKNLEWIGLINPYNGGTTYNQKFKGKATLTVDKSSSTAYMELLSLTSEDSAVYYCASYYGGRGWYFDVWGAGTSVTVSS VL: DIVLTQSPASLAVSLGQRATISCRASKSVSTSGYSYVHWYQQKPGQPPKLLIYLASNLESGVPARFSGSGSGTDFTLNIHPVEEEDAATYYCQNSRELPYTFGGGTKLEMKR |  | binds | binds
